Experimental findings from patent US20180155451A1 (published 2018) are described below.

Test [1] deals with T1, FcγRIIa H (FcγRIIa type H, His at position 131), extracellular domain with C-terminal His tag (human, UniProt P12318 34-217).
T1 construct: extracellular domain; Expressed in FreeStyle293 cells; analyte in the Biacore assay; also called FcgRIIa H; 2aH; not shown: His tag at the C terminus
T1 sequence (looked up): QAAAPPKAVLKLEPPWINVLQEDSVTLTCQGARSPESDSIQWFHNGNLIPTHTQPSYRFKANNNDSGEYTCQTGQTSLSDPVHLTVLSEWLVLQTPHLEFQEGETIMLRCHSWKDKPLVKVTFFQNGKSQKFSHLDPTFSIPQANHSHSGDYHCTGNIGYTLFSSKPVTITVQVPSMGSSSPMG
Nature of the test: SPR Biacore; He/Con_2aH divided by He/Con_2b (reference: FcgRIIb). (SPR reads the build-up and loss of mass on a sensor chip optically.)

Test [2] deals with T1, FcγRIIa H (FcγRIIa type H, His at …). Kind of test: SPR Biacore, captured antibody, FcgR analyte; GpH7-A5/GpH7-B3/GpL16-k0 = 100.
Test [3] has as its target T2, FcγRIIa R (FcγRIIa, allotype R, Arg at position 131), extracellular domain with C-terminal His tag (human, UniProt P12318 34-217).
T2 construct: extracellular domain; soluble receptor used as Biacore analyte; also called 2aR; FcgRIIa R
T2 sequence (looked up): T1 sequence (looked up) with H134R
Kind of test: Biacore SPR; He/Con_2aR divided by He/Con_2b (FcγRIIb). On the procedure:
(§1) The heterodimerized antibodies He Abs in which one of the H chains was introduced with an alteration were assayed for their binding activities to each activating FcγR and inhibitory FcγR according to the method described in Example 4. […] The activating FcγRs in FIGS. 26, 27, 28, and 29 are FcγRIa, FcγRIIa (R), FcγRIIa (H), and FcγRIIIa, respectively.
(§2) Analysis of interaction between objective antibody and the FcγR was carried out using Biacore T100 (GE Healthcare). HBS-EP+ (GE Healthcare) was used as the running buffer, and the measurement temperature was set to 25° C. Chips produced by immobilizing the antigen peptide by the amine coupling method to a Series S Sencor Chip CM5 (GE Healthcare), or alternatively, chips produced by allowing preliminarily biotinylated antigen peptides to interact with and immobilize onto a Series S Sensor Chip SA (certified) (GE Healthcare) were used. Antibodies of interest were captured onto an antigen peptide-immobilized chip, and allowed to interact to each FcγR diluted with running buffer. To regenerate and repeatedly use the chip, the antibodies captured on the chip were washed off by reacting 10 mM glycine-HCl, pH 1.5.

Test [4] addresses T2, FcγRIIa R (FcγRIIa, allotype R, Arg at …). Kind of test: Biacore SPR; binding relative to GpH7-A5/GpH7-B3/GpL16-k0 (=100). The procedure: as §1, §2
In test [5] the target is T3, FcγRIIb, extracellular domain with C-terminal His tag (human, UniProt P31994 43-217).
T3 construct: extracellular domain; soluble receptor used as Biacore analyte; also called 2b; FcgRIIb
T3 sequence (looked up): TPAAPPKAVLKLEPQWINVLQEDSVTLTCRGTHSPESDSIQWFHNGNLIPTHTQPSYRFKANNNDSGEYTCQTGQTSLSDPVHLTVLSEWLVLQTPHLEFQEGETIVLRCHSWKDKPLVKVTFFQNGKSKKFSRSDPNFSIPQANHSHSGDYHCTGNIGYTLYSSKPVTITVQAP
The test is described as above. On the procedure: as §1, §2

The target in the next test is T4, FcγRIa (human, UniProt P12314 16-292).
T4 construct: extracellular domain; also called FcgRI; CD64; not shown: C-terminal His tag
Nature of the test: SPR (Biacore), antibody captured on antigen peptide chip, FcγRIa as analyte; relative binding amount. The procedure: as §2

Changes are numbered by the printed parent chain.

T4 sequence (P12314 16-292): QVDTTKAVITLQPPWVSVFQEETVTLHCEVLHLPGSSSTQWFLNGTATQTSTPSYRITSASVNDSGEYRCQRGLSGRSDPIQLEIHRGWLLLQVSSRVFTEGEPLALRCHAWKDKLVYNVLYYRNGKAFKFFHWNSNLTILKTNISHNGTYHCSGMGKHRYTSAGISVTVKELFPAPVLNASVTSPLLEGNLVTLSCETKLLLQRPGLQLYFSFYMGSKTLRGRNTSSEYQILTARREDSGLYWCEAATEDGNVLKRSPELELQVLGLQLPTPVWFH

B1: GpH7-A5/GpH7-B3 variant A327_12R/GpL16-k0 (antibody, human IgG1, kappa)
heavy 1: not shown
heavy 2: not shown
light: DIVMTQSPLSLPVTPGEPASISCQASESLVHSNRNTYLHWYLQKPGQSPQLLIYKVSNRFSGVPDRFSGSGSGTDFTLKISRVEAEDVGVYYCSQNTHVPPTFGQGTKVEIERTVAAPSVFIFPPSDEQLKSGTASVVCLLNNFYPREAKVQWKVDNALQSGNSQESVTEQDSKDSTYSLSSTLTLSKADYEKHKVYACEVTHQGLSSPVTKSFNRGEC
notes: He Ab; IgG1; mutation in one H chain only; also called He Ab
For the molecule B1, the “He_2aH/2b (IIaH/IIb)” value in test [1] was found to be 1.26. Besides, the He/Con_2aH in test [2] was 11.3 % of HeCon Ab.

B2: heterodimerized antibody GpH7-A5/GpH7-B3 variant S267_08L/GpL16-k0 (antibody, human IgG1, kappa)
heavy 1: not shown
heavy 2: not shown
light: B1 light
notes: He Ab: anti-glypican-3 IgG1, alteration in one H chain only; also called He Ab
Consider B2, for which the “IIaR/IIb (He_2aR/2b)” value in test [3] is 0.66. Besides, in test [4], the “He/Con_2aR (IIaR binding)” value was 72.1 % of control. The “He/Con_2b (IIb binding)” value in test [5] is 109 % of control.

B3: GpH7-A5/GpH7-B3 variant Y300_01G/GpL16-k0 (antibody, human IgG1, kappa)
heavy 1: not shown
heavy 2: not shown
light: B1 light
notes: heterodimerized IgG1; mutation in one H chain only; also called He Ab
As for B3, the He/Con_1a with FcγRIa is 116 % of control (GpH7-A5/GpH7-B3/GpL16-k0 = 100).

B4: GpH7-B3 variant Y300_20W/GpL16-k0 (antibody, human IgG1, kappa)
heavy: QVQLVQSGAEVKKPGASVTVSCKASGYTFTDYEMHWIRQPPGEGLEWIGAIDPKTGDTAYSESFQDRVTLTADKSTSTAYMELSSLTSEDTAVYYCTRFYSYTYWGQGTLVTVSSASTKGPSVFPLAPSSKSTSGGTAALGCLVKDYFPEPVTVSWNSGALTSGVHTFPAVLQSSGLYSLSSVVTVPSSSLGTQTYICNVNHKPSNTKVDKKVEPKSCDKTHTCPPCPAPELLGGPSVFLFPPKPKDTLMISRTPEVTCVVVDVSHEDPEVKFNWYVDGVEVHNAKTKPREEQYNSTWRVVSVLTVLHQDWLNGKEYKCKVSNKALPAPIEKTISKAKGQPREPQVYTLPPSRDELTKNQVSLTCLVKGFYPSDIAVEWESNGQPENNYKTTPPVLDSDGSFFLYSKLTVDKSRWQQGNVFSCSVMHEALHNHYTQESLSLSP
light: B1 light
notes: homodimerized IgG1; mutation in both H chains; also called Ho Ab
In the case of B4, in the test with FcγRIa, the Ho/Con_1a was 110 % of control (GpH7-B3/GpL16-k0 = 100).

B5: GpH7-A5/GpH7-B3 variant Y296_06M/GpL16-k0 (antibody, human IgG1, kappa)
heavy 1: not shown
heavy 2: not shown
light: B1 light
notes: as for B3
B5: the He/Con_1a in the test with FcγRIa is 104 % of control (GpH7-A5/GpH7-B3/GpL16-k0 = 100).

B6: GpH7-B3 variant Y300_14T/GpL16-k0 (antibody, human IgG1, kappa)
heavy: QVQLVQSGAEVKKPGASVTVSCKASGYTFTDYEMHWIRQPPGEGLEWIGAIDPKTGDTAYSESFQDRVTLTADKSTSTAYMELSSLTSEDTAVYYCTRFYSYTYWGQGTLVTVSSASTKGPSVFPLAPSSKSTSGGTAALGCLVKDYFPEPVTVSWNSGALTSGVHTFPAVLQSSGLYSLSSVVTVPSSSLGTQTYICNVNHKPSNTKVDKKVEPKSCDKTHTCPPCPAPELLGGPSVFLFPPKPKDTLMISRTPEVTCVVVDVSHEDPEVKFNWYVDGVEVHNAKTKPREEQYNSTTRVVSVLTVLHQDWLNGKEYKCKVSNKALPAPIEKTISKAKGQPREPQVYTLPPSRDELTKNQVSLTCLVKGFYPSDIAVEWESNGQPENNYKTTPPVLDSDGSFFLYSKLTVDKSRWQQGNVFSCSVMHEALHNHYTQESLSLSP
light: B1 light
notes: as for B4
B6: in the test with FcγRIa, the Ho/Con_1a is 110 % of control (GpH7-B3/GpL16-k0 = 100).

B7: heterodimerized antibody GpH7-A5/GpH7-B3 variant A327_12R/GpL16-k0 (antibody, human IgG1, kappa)
heavy 1: not shown
heavy 2: not shown
light: B1 light
notes: as for B2
In the case of B7, in test [3], the “IIaR/IIb (He_2aR/2b)” value was 0.67. Moreover, in test [4], the “He/Con_2aR (IIaR binding)” value was 6 % of control.

B8: GpH7-A5/GpH7-B3 variant Y300_20W/GpL16-k0 (antibody, human IgG1, kappa)
heavy 1: not shown
heavy 2: not shown
light: B1 light
notes: as for B3
For B8, the He/Con_1a in the test with FcγRIa is 112 % of control (GpH7-A5/GpH7-B3/GpL16-k0 = 100).

B9: GpH7-A5/GpH7-B3 variant Y300_11K/GpL16-k0 (antibody, human IgG1, kappa)
heavy 1: not shown
heavy 2: not shown
light: B1 light
notes: as for B3
In the case of B9, the He/Con_1a with FcγRIa is 107 % of control (GpH7-A5/GpH7-B3/GpL16-k0 = 100).

B10: GpH7-A5/GpH7-B3 variant L328_11K/GpL16-k0 (antibody, human IgG1, kappa)
heavy 1: not shown
heavy 2: not shown
light: B1 light
notes: as for B1
As for B10, the “He_2aH/2b (IIaH/IIb)” value in test [1] stood at 4.27. Also, the He/Con_2aH in test [2] was 32.2 % of HeCon Ab.

B11: GpH7-A5/GpH7-B3 variant Y300_14T/GpL16-k0 (antibody, human IgG1, kappa)
heavy 1: not shown
heavy 2: not shown
light: B1 light
notes: as for B3
Turning to B11, in the test with FcγRIa, the He/Con_1a was 112 % of control (GpH7-A5/GpH7-B3/GpL16-k0 = 100).

B12: GpH7-A5/GpH7-B3 variant Y296_10E/GpL16-k0 (antibody, human IgG1, kappa)
heavy 1: not shown
heavy 2: not shown
light: B1 light
notes: as for B3
Take B12: the He/Con_1a with FcγRIa is 106 % of control (GpH7-A5/GpH7-B3/GpL16-k0 = 100).

B13: GpH7-A5/GpH7-B3 variant Y296_16H/GpL16-k0 (antibody, human IgG1, kappa)
heavy 1: not shown
heavy 2: not shown
light: B1 light
notes: as for B3
As to B13, the He/Con_1a with FcγRIa was 106 % of control (GpH7-A5/GpH7-B3/GpL16-k0 = 100).

B14: GpH7-A5/GpH7-B3 variant Y300_09D/GpL16-k0 (antibody, human IgG1, kappa)
heavy 1: not shown
heavy 2: not shown
light: B1 light
notes: as for B3
Take B14: in the test with FcγRIa, the He/Con_1a was 112 % of control (GpH7-A5/GpH7-B3/GpL16-k0 = 100).

B15: GpH7-A5/GpH7-B3 variant Y296_19Q/GpL16-k0 (antibody, human IgG1, kappa)
heavy 1: not shown
heavy 2: not shown
light: B1 light
notes: as for B3
On to B15, for which the He/Con_1a with FcγRIa is 112 % of control (GpH7-A5/GpH7-B3/GpL16-k0 = 100).

B16: GpH7-A5/GpH7-B3 variant Y300_19Q/GpL16-k0 (antibody, human IgG1, kappa)
heavy 1: not shown
heavy 2: not shown
light: B1 light
notes: as for B3
B16: in the test with FcγRIa, the He/Con_1a was 112 % of control (GpH7-A5/GpH7-B3/GpL16-k0 = 100).

B17: GpH7-A5/GpH7-B3 variant Y296_20W/GpL16-k0 (antibody, human IgG1, kappa)
heavy 1: not shown
heavy 2: not shown
light: B1 light
notes: as for B3
On to B17, for which the He/Con_1a in the test with FcγRIa is 111 % of control (GpH7-A5/GpH7-B3/GpL16-k0 = 100).

B18: GpH7-A5/GpH7-B3 variant Y300_03V/GpL16-k0 (antibody, human IgG1, kappa)
heavy 1: not shown
heavy 2: not shown
light: B1 light
notes: as for B3
As for B18, the He/Con_1a in the test with FcγRIa is 117 % of control (GpH7-A5/GpH7-B3/GpL16-k0 = 100).
